Measured values: IntAct's records for PubMed 11956294

B1: Inducible T-cell costimulator (Homo sapiens), Q9Y6W8 (parent)
chain: MKSGLWYFFLFCLRIKVLTGEINGSANYEMFIFHNGGVQILCKYPDIVQQFKMQLLKGGQILCDLTKTKGSGNTVSIKSLKFCHSQLSNNSVSFFLYNLDHSHANYYFCNLSIFDPPPFKVTLTGGYLHIYESQLCCQLKFWLPIGCAAFVVVCILGCILICWLTKKKYSSSVHDPNGEYMFMRAVNTAKKSRLTDVTL
partner: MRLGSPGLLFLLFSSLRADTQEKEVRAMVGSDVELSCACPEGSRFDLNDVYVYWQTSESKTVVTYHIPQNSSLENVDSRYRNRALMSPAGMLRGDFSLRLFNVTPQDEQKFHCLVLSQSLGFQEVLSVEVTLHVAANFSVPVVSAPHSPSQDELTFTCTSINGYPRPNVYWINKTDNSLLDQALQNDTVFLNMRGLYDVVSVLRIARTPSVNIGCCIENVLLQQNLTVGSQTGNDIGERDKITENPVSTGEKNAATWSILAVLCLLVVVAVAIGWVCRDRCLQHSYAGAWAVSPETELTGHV

Variants of: B1
Conditions: with icosl_human ICOSLG

Variant | effect of a mutation on the interaction
K52S | increasing interaction strength
F51S | disrupting interaction strength
D115S | disrupting interaction strength
Q50S | decreasing interaction strength
Q49S | decreasing interaction strength
K69S | disrupting interaction strength
F119S | disrupting interaction strength
F114S | disrupting interaction strength
K67S | disrupting interaction strength
P117S | disrupting interaction strength
D64S | decreasing interaction strength
S76E | increasing interaction strength
